Results reported in publication PMC7026639.
Like-named read-outs stand apart in the source and are kept apart here.

B1: 14-bp cognate oligo (dsDNA)
DNA 1: TCCAAGCGCAACAG
DNA 2: CTGTTGCGCTTGGA
B2: 13-bp iodo oligo (dsDNA)
DNA 1: TCCAAGCGCAACG
DNA 2: CGUTGCGCTUGGA
modifications: 5-iodo-uridine at positions 3 and 10 of strand 2 (printed as I, written as U)

What was measured:
[1] = target: T1, HhaI restriction endonuclease (R.HhaI) (Haemophilus haemolyticus NEB129 (now …, UniProt A0ABF7PI58 1-258)); assay: X-ray crystallography
[2] = target: T1, HhaI restriction endonuclease (R.HhaI); assay: X-ray crystallography; remark: listed apart in the source

| Binder | binding result [1] | binding result [2] |
| --- | --- | --- |
| B1 | binds |  |
| B2 |  | binds |
